Reference: patent US20220049016A1 (ZYMEDI, published 2022)
Changes are numbered by the printed parent chain.

Assays:
[1] = target: T1, NRP1-b1b2 (UniProt O14786 273-586, limits assumed); test: ELISA, coated antigen printed as NRP1
T1 construct: domain: b1b2; Negative control antigen
T1 sequence (looked up): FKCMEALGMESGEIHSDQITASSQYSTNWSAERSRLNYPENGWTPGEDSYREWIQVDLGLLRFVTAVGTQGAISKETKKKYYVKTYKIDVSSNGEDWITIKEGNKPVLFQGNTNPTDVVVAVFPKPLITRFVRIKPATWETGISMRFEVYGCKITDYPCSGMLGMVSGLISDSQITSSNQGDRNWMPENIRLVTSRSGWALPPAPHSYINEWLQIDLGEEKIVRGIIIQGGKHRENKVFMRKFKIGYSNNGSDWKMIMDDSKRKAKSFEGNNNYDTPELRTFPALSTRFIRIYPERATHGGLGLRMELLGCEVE

[2] = target: T2, KRS fragment (1-207aa) (human, UniProt Q15046 1-207); test: SPR, Biacore T200, antibody amine-coupled on CM5, KRS (1-207aa) as analyte, 25 C
T2 construct: range 1-207; also called purified protein of the KRS fragment (1-207aa); KRS protein

[3] = target: T2, KRS fragment (1-207aa); test: SPR (Biacore T200), antibody immobilised on CM5, KRS 1-207 flowed at 4.8 to 1250 nM
[4] = target: T3, KRS epitope peptide F4; test: SPR, Biacore T200, antibody on the chip, peptide F4 as analyte
T3 peptide: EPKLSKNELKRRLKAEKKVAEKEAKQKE
Experimental: The SPR experiment was performed using a Biacore T200 (GE Healthcare) equipped with a Series S sensor chip CM5 (GE Healthcare) at 25° C. After the antibody was immobilized on the chip using an amine coupling kit (GE Healthcare), the antigen was diluted 4 times in PBS solution in the range of 4.8 nM-1250 nM and flowed for 60 seconds. Thereafter, PBS was flowed for 300 seconds. The obtained data was analyzed with Biacore T200 Evaluation software v2.0 (GE Healthcare).
After that, PBS was flowed for 2400 seconds. The obtained data was analyzed with Biacore T200 Evaluation software v2.0 (GE Healthcare).

T2 sequence (Q15046 1-207 limits assumed): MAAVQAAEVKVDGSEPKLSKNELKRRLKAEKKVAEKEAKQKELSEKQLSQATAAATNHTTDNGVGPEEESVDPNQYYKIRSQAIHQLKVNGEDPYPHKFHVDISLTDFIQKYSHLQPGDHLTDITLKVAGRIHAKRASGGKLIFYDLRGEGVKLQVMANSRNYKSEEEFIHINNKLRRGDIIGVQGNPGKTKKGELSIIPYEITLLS

B1: N3-8 antibody (IgG) (antibody)
heavy: not shown
light: QSVLTQPPSASGTPGQRVTISCTGSSSNIGSNYVTWYQQLPGTAPKLLIYDNSNRPSGVPDRFSGSKSGTSASLAISGLQSEDEADYYCSSFSDELGAYVFGGGTKLTVLRTVAAPSVFIFPPSDEQLKSGTASVVCLLNNFYPREAKVQWKVDNALQSGNSQESVTEQDSKDSTYSLSSTLTLSKADYEKHKVYACEVTHQGLSSPVTKSFNRGEC
notes: Whole IgG1; also called N3-8 IgG
B1: no binding (tested: 10 nM) [1].

B2: N3-1 antibody (IgG) (antibody)
chain 1: EVQLLESGGGLVQPGGSLRLSCAASGFTFSSYDMSWVRQAPGKGLEWVSAISYDNGNTYYADSVKGRFTISRDNSKNTLYLQMNSLRAEDTAVYYSARMALDFDYWGQGTLVTVSS
chain 2: QSVLTQPPSASGTPGQRVTISCTGSSSNIGSNYVTWYQQLPGTAPKLLIYDNSNRPSGVPDRFSGSKSGTSASLAISGLQSEDEADYYCASFSDELGAYVFGGGTKLTVL
In the case of B2, the Kd [2] is reported as 31 nM, the koff [3] is reported as 0.0206 s⁻¹ and the kon [3] is reported as 664000 M⁻¹ s⁻¹.

B3: N3-8-4 antibody (IgG) (antibody, V domains shown)
VH: B2 chain 1 with Y53P, D54Y, N55S, N57R, T58I, S96C, M99L
VL: QSVLTQPPSASGTPGQRVTISCTGSSSNIGSNYVTWYQQLPGTAPKLLIYDNSNRPSGVPDRFSGSKSGTSASLAISGLQSEDEADYYCSSFSDELGAYVFGGGTKLTVLG
notes: Whole IgG1, N3-8 derivative; also called N3-8-4 IgG
Work on B3 yielded a Kd [4] of 10.1 nM, a koff [4] of 0.0009 s⁻¹ and a kon [4] of 89500 M⁻¹ s⁻¹.
